Source: US5911991A, “Malarial binding site in duffy blood group protein” (New York Blood Center, Inc., priority 1996, dated 1999)
Values joined by “and” are separate entries in the source; they are usually repeats but may differ in a detail not shown here. Equal values may be shown once. Read-outs that look alike come from different tables or passages of the source. Ends that are not written are not given here.

Assays:
[1] = biological target: T1, Region II of P. falciparum EBA-175 (Plasmodium falciparum, UniProt P19214); assay: cell-based
T1 construct: expressed in transfected cells; host or cells: Cos7 cells (ATCC CRL 1651)

[2] = tested on: Region II of the P. knowlesi Duffy antigen binding protein (α); conditions: read-out: concentration for 50% inhibition of erythrocyte binding, human erythrocytes
From the text: To study the ability of peptides from the Duffy antigen to inhibit erythrocyte binding, a binding assay using the transfected Cos cells was employed, based on a method previously described (Chitnis et al. 1994). This method measures interaction between the malarial Duffy antigen binding ligand expressed by the Cos cells and Duffy protein on erythrocytes. The ability of an analyte to interfere with the cellular binding can be quantitated by comparing the number of Cos cells surrounded by rosettes of erythrocytes in the control versus the number of rosettes formed in the presence of the analyte.
Transfected Cos cells were preincubated for 1 h in a 5% CO2 incubator at 37° C. in 0.9 mL of complete Dulbecco's modified Eagle's medium (cDMEM) containing a series of concentrations (0 to 100 μM) of the peptides. One hundred microliters of human or rhesus erythrocytes at a hematocrit of 10% were added to wells containing the peptides and allowed to bind over 2 h at 37° C. in a 5% CO2 incubator. Non-adherenterythrocytes were removed by washing the Cos7 cells then with PBS. The numbers of rosettes were scored in 20 fields of view at a magnification of 40× using an inverted microscope. Inhibition curves were drawn for three independent experiments and used to determine concentrations of the peptides required to achieve 50% inhibition. […]

[3] = biological target: Region II of the P. knowlesi β protein expressed on the Cos7 cell surface (Plasmodium knowlesi; Herpes simplex virus) (UniProt P50493)
[4] = biological target: deglycosylated rhesus Duffy blood group antigen on N-glycanase-treated rhesus erythrocytes (rhesus monkey) (UniProt Q95LF2)
[5] = biological target: rhesus Duffy blood group antigen on normal rhesus erythrocytes (rhesus monkey) (UniProt Q95LF2)
[6] = tested on: Region II of the P. knowlesi Duffy-binding ligand (α); assay: MGSA inhibition of rhesus erythrocyte binding, P. knowlesi α Region II; type: cell-based, Plasmodium knowlesi
[7] = tested on: Region II of the P. vivax Duffy antigen binding protein; assay: MGSA inhibition of N-glycanase-treated rhesus erythrocyte binding, P. vivax Region II; type: cell-based, Plasmodium vivax
Region II of the P. vivax Duffy antigen binding protein, sequence (P22290 211-521): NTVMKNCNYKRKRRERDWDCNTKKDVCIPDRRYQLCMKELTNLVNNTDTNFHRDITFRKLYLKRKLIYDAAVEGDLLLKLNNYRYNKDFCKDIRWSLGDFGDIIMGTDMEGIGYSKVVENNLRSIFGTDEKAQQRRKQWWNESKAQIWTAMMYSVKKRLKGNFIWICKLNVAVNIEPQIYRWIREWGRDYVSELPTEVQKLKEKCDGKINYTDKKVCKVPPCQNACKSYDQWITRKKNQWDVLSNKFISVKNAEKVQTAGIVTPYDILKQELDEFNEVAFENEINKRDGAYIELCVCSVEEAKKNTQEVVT
Method: Blood was collected in 10% citrate/phosphate/dextrose (CPD) (Baxter, Deerfield, Ill.) and stored at 4° C. for up to four weeks. Standard blood banking methods using two antisera (anti-Fya and anti-Fyb) were used to determine the Duffy phenotypes. Duffy positive erythrocytes used in the binding assays had the Fy(a+b+) phenotype. Erythrocytes were washed three times in RPMI 1640 (GIBCO BRL) and resuspended to a hematocrit of 10% in RPMI 1640 for use in the erythrocyte binding assays. Washed human and rhesus erythrocytes were treated with neuraminidase as described earlier (Comus et al. 1985). Human and rhesus erythrocytes were deglycosylated with the N-glycanase, peptide-N-glycosidase F from Flavobacterium meningosepticum (Oxford Glycosystems). Washed erythrocytes (100 μL) were incubated with mixing for 1 h at 37° C. in 500 μL of PBS containing 10 units of N-glycanase and reaction buffer supplied by the manufacturer. The erythrocytes were washed extensively in PBS to remove the enzyme and stop the deglycosylation.
To study the efficacy of the chemokine MGSA in inhibiting binding, erythrocytes were preincubated in media containing different concentrations of MGSA (0 to 1000 nM) for 1 h at room temperature before they were used in erythrocyte binding assays as described earlier (Su et al. 1995). […]

[8] = biological target: P. knowlesi β Region II; assay: MGSA inhibition of N-glycanase-treated rhesus erythrocyte binding, P. knowlesi β Region II; type: cell-based, Plasmodium knowlesi; conditions: rhesus erythrocytes, read-out: 50% Inhibition Conc.
[9] = tested on: P. vivax Region II; conditions: previously shown (Horuk et al. 1993; Chitnis et al. 1994); cited from earlier work
P. vivax Region II, sequence (P22290 211-521): as above

[10] = biological target: T2, Duffy blood group antigen (Homo sapiens, UniProt Q16570); conditions: previously shown (Horuk et al. 1993; Chitnis et al. 1994); cited from earlier work
T2 sequence (Q16570 1-336): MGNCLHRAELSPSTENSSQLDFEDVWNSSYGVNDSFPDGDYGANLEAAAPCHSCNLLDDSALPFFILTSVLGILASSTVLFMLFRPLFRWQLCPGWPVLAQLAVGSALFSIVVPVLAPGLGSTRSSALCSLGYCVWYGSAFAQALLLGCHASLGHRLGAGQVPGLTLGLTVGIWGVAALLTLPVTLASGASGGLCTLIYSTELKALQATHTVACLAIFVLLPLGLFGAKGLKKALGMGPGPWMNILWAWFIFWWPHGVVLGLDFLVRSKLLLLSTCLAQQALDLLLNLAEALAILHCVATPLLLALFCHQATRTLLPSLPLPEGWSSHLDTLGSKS

[11] = biological target: T3, Region II of the P. knowlesi Duffy antigen binding protein (alpha) expressed on the Cos7 cell surface (Plasmodium knowlesi; Herpes simplex …, UniProt P22545)
T3 sequence: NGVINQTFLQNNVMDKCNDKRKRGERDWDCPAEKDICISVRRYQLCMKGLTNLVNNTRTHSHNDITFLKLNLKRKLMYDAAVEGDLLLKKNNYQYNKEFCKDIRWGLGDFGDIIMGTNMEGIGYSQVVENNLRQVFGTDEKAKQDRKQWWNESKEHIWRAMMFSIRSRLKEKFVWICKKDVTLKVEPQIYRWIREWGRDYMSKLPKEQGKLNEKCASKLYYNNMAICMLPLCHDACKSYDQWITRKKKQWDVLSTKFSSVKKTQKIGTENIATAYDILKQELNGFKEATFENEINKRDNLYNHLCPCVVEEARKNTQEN

[12] = biological target: Region II of the P. vivax Duffy antigen-binding protein (DABP) expressed on the Cos7 cell surface (Plasmodium vivax; Herpes simplex virus, UniProt P22290)
[13] = biological target: T3, Region II of the P. knowlesi Duffy …; remark: listed apart in the source
[14] = biological target: Region II of the P. knowlesi β protein expressed on the Cos7 cell surface (Plasmodium knowlesi; Herpes simplex …, UniProt P50493)
[15] = tested on: Rubinstein anti-Fy6 antibody; assay: Binding of the Rubinstein anti-Fy6 antibody to Duffy peptides (ELISA); parameters: species or system murine

## AELSPSTENSSQLDFEDVWNSSYGVNDSFPDGDYD [HPEP35]
[1]
  IC50: > 100 µM
[2]
  IC50: 4.9 ± 2.3 µM

## AELSPSTQNSSQLNSDLWNFSYDGNDSFPDVDYD [RHPEP34]
[1]
  IC50: > 100 µM

## melanoma growth stimulating activity (MGSA) (from UniProt P09341) (ligand)
[3]
  IC50: > 1 µM
[4]
  IC50: 0.005 µM and 0.006 µM
[5]
  IC50: 0.005 µM

## melanoma growth stimulating activity [MGSA]
[6]; in words
  inhibition of binding of rhesus erythrocytes to Cos cells expressing Region II of P. knowlesi α: inhibit
[6]; rhesus erythrocytes, treatment none, P. knowlesi α, read-out: 50% Inhibition Conc.
  IC50: 0.005 µM
[7]; in words, 50% inhibition at nanomolar concentrations
  inhibition of binding of N-glycanase-treated rhesus erythrocytes to P. vivax Region II: inhibits
[7]; rhesus erythrocytes, N-glycanase treated, P. vivax DABP, separate experiments, read-out: 50% Inhibition Conc.
  IC50: 0.005 µM and 0.006 µM
[8]
  IC50: > 1 µM
[9]
  inhibition of binding of P. vivax Region II to Duffy-positive human erythrocytes: inhibit
[10]
  binding to the Duffy blood group antigen: binds

## AELSPSTENSSQLDFEDVWNSSYGVNDSFPDGDYD [HPEP35]
[11]
  IC50: 4.9 µM
[12]
  IC50: 2.9 µM

## AELSPSTQNSSQLNSDLWNFSYDGNDSFPDVDYD [RHPEP34]
[12]
  IC50: 2.1 µM
[13]
  IC50: 5.5 µM
[14]
  IC50: > 100 µM

B1: MASSGYVLQAELSPSTENSSQLDFEDVWNSSYGVNDSFPDGDYDANLEAAAPCHSCNLLDDSALPF (peptide)
chain: MASSGYVLQAELSPSTENSSQLDFEDVWNSSYGVNDSFPDGDYDANLEAAAPCHSCNLLDDSALPF
notes: N-terminal peptide of gp-Fyα containing the HPEP35 domain
[15]
  binding in an ELISA assay (Rubinstein antibody): bind
